The supplement of paper PMC11316812
± gives the standard deviation of the averaged measurements.

Assays:
MCF7 = assay: percentage of EdU-negative (G0-arrested) nuclei per well, 72 h; higher = more G0 arrest; details: reference: sequence is the full UniProt precursor, the tested protein was the secreted form or ectodomain
hTERT-HMEC = assay: as above; details: reference: sequence is the full UniProt precursor, the tested protein was the secreted form or ectodomain
[1] = protein concentration 0.02117 µM
[2] = protein concentration 0.2117 µM
[3] = protein concentration 0.0199575 µM
[4] = protein concentration 0.03125 µM
[5] = protein concentration 0.199575 µM
[6] = protein concentration 0.3125 µM
[7] = protein concentration 0.00725 µM
[8] = protein concentration 0.0725 µM
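Also: secreted proteins added to cultured cells, EdU pulse at the end, nuclei found by Hoechst imaging, EdU status from nuclear versus surrounding ring intensity ratio, PBS as neutral control.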

Substance: MSPLLRRLLLAALLQLAPAQAPVSQPDAPGHQRKVVSWIDVYTRATCQPREVVVPLTVELMGTVAKQLVPSCVTVQRCGGCCPDDGLECVPTGQHQVRMQILMIRYPSSQLGEMSLEEHSQCECRPKKKDSAVKPDRAATPHHRPQPRSVPGWDSAPGAPSPADITHPTPAPGPSAHAAPSTTSALTPGPAAAAADAAASSVAKGGA
- percentage of EdU-negative (MCF7; [1]): 25 ± 0.51%
- percentage of EdU-negative (MCF7; [2]): 26.88 ± 0.25%
- percentage of EdU-negative (hTERT-HMEC; [1]): 4.57 ± 0.19%
- percentage of EdU-negative (hTERT-HMEC; [2]): 6.4 ± 1.3%

Substance: MGTTARAALVLTYLAVASAASEGGFTATGQRQLRPEHFQEVGYAAPPSPPLSRSLPMDHPDSSQHGPPFEGQSQVQPPPSQEATPLQQEKLLPAQLPAEKEVGPPLPQEAVPLQKELPSLQHPNEQKEGTPAPFGDQSHPEPESWNAAQHCQQDRSQGGWGHRLDGFPPGRPSPDNLNQICLPNRQHVVYGPWNLPQSSYSHLTRQGETLNFLEIGYSRCCHCRSHTNRLECAKLVWEEAMSRFCEAEFSVKTRPHWCCTRQGEARFSCFQEEAPQPHYQLRACPSHQPDISSGLELPFPPGVPTLDNIKNICHLRRFRSVPRNLPATDPLQRELLALIQLEREFQRCCRQGNNHTCTWKAWEDTLDKYCDREYAVKTHHHLCCRHPPSPTRDECFARRAPYPNYDRDILTIDIGRVTPNLMGHLCGNQRVLTKHKHIPGLIHNMTARCCDLPFPEQACCAEEEKLTFINDLCGPRRNIWRDPALCCYLSPGDEQVNCFNINYLRNVALVSGDTENAKGQGEQGSTGGTNISSTSEPKEE
- percentage of EdU-negative (MCF7; [3]): 23.4 ± 2%
- percentage of EdU-negative (MCF7; [4]): 25.6 ± 1.1%
- percentage of EdU-negative (MCF7; [5]): 25.7 ± 1.2%
- percentage of EdU-negative (MCF7; [6]): 26 ± 1.7%
- percentage of EdU-negative (hTERT-HMEC; [3]): 5.01 ± 0.46%
- percentage of EdU-negative (hTERT-HMEC; [4]): 4.52 ± 0.66%
- percentage of EdU-negative (hTERT-HMEC; [5]): 5.74 ± 0.78%
- percentage of EdU-negative (hTERT-HMEC; [6]): 5.29 ± 0.63%

Substance: MRPPGFRNFLLLASSLLFAGLSAVPQSFSPSLRSWPGAACRLSRAESERRCRAPGQPPGAALCHGRGRCDCGVCICHVTEPGMFFGPLCECHEWVCETYDGSTCAGHGKCDCGKCKCDQGWYGDACQYPTNCDLTKKKSNQMCKNSQDIICSNAGTCHCGRCKCDNSDGSGLVYGKFCECDDRECIDDETEEICGGHGKCYCGNCYCKAGWHGDKCEFQCDITPWESKRRCTSPDGKICSNRGTCVCGECTCHDVDPTGDWGDIHGDTCECDERDCRAVYDRYSDDFCSGHGQCNCGRCDCKAGWYGKKCEHPQSCTLSAEESIRKCQGSSDLPCSGRGKCECGKCTCYPPGDRRVYGKTCECDDRRCEDLDGVVCGGHGTCSCGRCVCERGWFGKLCQHPRKCNMTEEQSKNLCESADGILCSGKGSCHCGKCICSAEEWYISGEFCDCDDRDCDKHDGLICTGNGICSCGNCECWDGWNGNACEIWLGSEYP
- percentage of EdU-negative (MCF7; [7]): 26.1 ± 1.1%
- percentage of EdU-negative (MCF7; [8]): 24.7 ± 1.8%
- percentage of EdU-negative (hTERT-HMEC; [7]): 4.34 ± 0.65%
- percentage of EdU-negative (hTERT-HMEC; [8]): 6.33 ± 0.52%

Substance: MEKLLCFLVLTSLSHAFGQTDMSRKAFVFPKESDTSYVSLKAPLTKPLKAFTVCLHFYTELSSTRGYSIFSYATKRQDNEILIFWSKDIGYSFTVGGSEILFEVPEVTVAPVHICTSWESASGIVEFWVDGKPRVRKSLKKGYTVGAEASIILGQEQDSFGGNFEGSQSLVGDIGNVNMWDFVLSPDEINTIYLGGPFSPNVLNWRALKYEVQGEVFTKPQLWP
- percentage of EdU-negative (MCF7; [4]): 24.1 ± 2.6%
- percentage of EdU-negative (MCF7; [6]): 25.3 ± 0.79%
- percentage of EdU-negative (hTERT-HMEC; [4]): 4.41 ± 0.15%
- percentage of EdU-negative (hTERT-HMEC; [6]): 5.8 ± 1.1%

Substance: Q9BYZ8
- percentage of EdU-negative (MCF7; protein concentration 0.02 µM): 24.8 ± 0.7%
- percentage of EdU-negative (MCF7; protein concentration 0.2 µM): 29.6 ± 2.5%
- percentage of EdU-negative (hTERT-HMEC; protein concentration 0.02 µM): 5.55 ± 0.64%
- percentage of EdU-negative (hTERT-HMEC; protein concentration 0.2 µM): 19.9 ± 4.5%

Substance: MGLGTLSPRMLVWLVASGIVFYGELWVCAGLDYDYTFDGNEEDKTETIDYKDPCKAAVFWGDIALDDEDLNIFQIDRTIDLTQNPFGNLGHTTGGLGDHAMSKKRGALYQLIDRIRRIGFGLEQNNTVKGKVPLQFSGQNEKNRVPRAATSRTERIWPGGVIPYVIGGNFTGSQRAMFKQAMRHWEKHTCVTFIERSDEESYIVFTYRPCGCCSYVGRRGNGPQAISIGKNCDKFGIVVHELGHVIGFWHEHTRPDRDNHVTIIRENIQPGQEYNFLKMEPGEVNSLGERYDFDSIMHYARNTFSRGMFLDTILPSRDDNGIRPAIGQRTRLSKGDIAQARKLYRCPACGETLQESNGNLSSPGFPNGYPSYTHCIWRVSVTPGEKIVLNFTTMDLYKSSLCWYDYIEVRDGYWRKSPLLGRFCGDKLPEVLTSTDSRMWIEFRSSSNWVGKGFAAVYEAICGGEIRKNEGQIQSPNYPDDYRPMKECVWKITVSESYHVGLTFQSFEIERHDNCAYDYLEVRDGTSENSPLIGRFCGYDKPEDIRSTSNTLWMKFVSDGTVNKAGFAANFFKEEDECAKPDRGGCEQRCLNTLGSYQCACEPGYELGPDRRSCEAACGGLLTKLNGTITTPGWPKEYPPNKNCVWQVVAPTQYRISVKFEFFELEGNEVCKYDYVEIWSGLSSESKLHGKFCGAEVPEVITSQFNNMRIEFKSDNTVSKKGFKAHFFSDKDECSKDNGGCQHECVNTMGSYMCQCRNGFVLHDNKHDCKEAECEQKIHSPSGLITSPNWPDKYPSRKECTWEISATPGHRIKLAFSEFEIEQHQECAYDHLEVFDGETEKSPILGRLCGNKIPDPLVATGNKMFVRFVSDASVQRKGFQATHSTECGGRLKAESKPRDLYSHAQFGDNNYPGQVDCEWLLVSERGSRLELSFQTFEVEEEADCGYDYVELFDGLDSTAVGLGRFCGSGPPEEIYSIGDSVLIHFHTDDTINKKGFHIRYKSIRYPDTTHTKK
- percentage of EdU-negative (MCF7; protein concentration 0.014 µM): 24.6 ± 2.5%
- percentage of EdU-negative (MCF7; protein concentration 0.14 µM): 29.6 ± 1.9%
- percentage of EdU-negative (hTERT-HMEC; protein concentration 0.014 µM): 4.501 ± 0.026%
- percentage of EdU-negative (hTERT-HMEC; protein concentration 0.14 µM): 5.35 ± 1.3%
